{"source": "paper doi:10.1101/2025.07.10.664194", "test_in_all_cases": "mass photometry", "key": {"[1]": {"molecular_target": "BtHamA (not stated (prefix Bt))"}, "[2]": {"molecular_target": "EcHna (E. coli (from the prefix Ec))"}, "[3]": {"molecular_target": "EcPD-T4-1 (E. coli)"}, "[4]": {"molecular_target": "EcPD-T4-8 (E. coli)"}, "[5]": {"molecular_target": "PaAbpA (not stated (prefix Pa))"}, "[6]": {"molecular_target": "PfOloA (not stated (prefix Pf))"}}}
{"substance": "BtHamB (natural protein)", "values": [{"measurement": "stoichiometry N (HamA:HamB (1:1))", "setting": "[1]", "result": 1}]}
{"substance": "EcHna (natural protein)", "values": [{"measurement": "stoichiometry N", "setting": "[2]", "result": 2}]}
{"substance": "EcPD-T4-1 (natural protein)", "values": [{"measurement": "stoichiometry N", "setting": "[3]", "result": 2}]}
{"substance": "EcPD-T4-8 (natural protein)", "values": [{"measurement": "stoichiometry N", "setting": "[4]", "result": 4}]}
{"substance": "PaAbpB (natural protein)", "values": [{"measurement": "stoichiometry N (AbpA:AbpB (1:1))", "setting": "[5]", "result": 1}]}
{"substance": "PfOloB (natural protein)", "values": [{"measurement": "stoichiometry N (OloA:OloB (2:2))", "setting": "[6]", "result": 1}]}
